The assay addresses T1, Bin2 (Bridging INtegrator-2) (human, UniProt Q9UBW5 1-565).
T1 construct: In vitro translated in the presence of 35S-methionine from the full-length cDNA
T1 sequence: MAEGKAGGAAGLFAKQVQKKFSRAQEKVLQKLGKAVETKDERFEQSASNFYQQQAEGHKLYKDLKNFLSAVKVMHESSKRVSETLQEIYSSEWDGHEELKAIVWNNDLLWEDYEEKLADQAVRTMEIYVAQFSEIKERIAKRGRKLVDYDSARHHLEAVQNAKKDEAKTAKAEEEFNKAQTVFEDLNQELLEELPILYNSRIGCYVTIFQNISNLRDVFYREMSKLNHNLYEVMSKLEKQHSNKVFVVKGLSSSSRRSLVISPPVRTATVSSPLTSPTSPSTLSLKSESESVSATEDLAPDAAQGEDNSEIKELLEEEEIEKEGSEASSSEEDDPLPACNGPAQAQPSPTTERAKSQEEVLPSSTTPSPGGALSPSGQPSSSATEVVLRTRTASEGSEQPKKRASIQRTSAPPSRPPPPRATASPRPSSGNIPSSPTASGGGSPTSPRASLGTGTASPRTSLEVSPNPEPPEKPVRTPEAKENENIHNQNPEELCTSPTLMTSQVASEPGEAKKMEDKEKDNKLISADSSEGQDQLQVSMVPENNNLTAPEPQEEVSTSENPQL
Kind of assay: co-immunoprecipitation of in vitro translated proteins, deletion mutant. The source says: Stable complexes have been reported in yeast between RVS161 and RVS167 and in brain between amphiphysin and brain-specific splice isoforms of Bin1 [Navarro et al., Biochim. Biophys. Acta, 1343: 187-192 (1997); Wigge et al., Mol. Biol. Cell 8: 2003-2015 (1997)]. Since Bin1 is expressed in hematopoietic cells, whether Bin2 and Bin1 could also form a stable biochemical complex was investigated. For coimmunoprecipitation experiments, Bin1 was in vitro translated in the presence or absence of Bin2 and complex formation was assessed by SDS-PAGE and fluorography after immunoprecipitation with the Bin1 monoclonal antibody 99D [Wechsler-Reya et al., Cancer Res. 57: 3258-3263 (1997)].
Other deletion mutants of Bin1 lacking the so-called Unique central region, the Myc-binding domain, or the SH3 domain, interacted with Bin2 with the same efficiency as wild-type Bin1 (data not shown). It was concluded that Bin1 and Bin2 formed a BAR domain-dependent complex in cells.

B1: Bin1 deletion mutant Δ1-122 (other)
chain: LLTMDTYLGQFPDIKSRIAKRGRKLVDYDSARHHYESLQTAKKKDEAKIAKAEEELIKAQKVFEEMNVDLQEELPSLWNSRVGFYVNTFQSIAGLEENFHKEMSKLNQNLNDVLVGLEKQHGSNTFTVKA
With B1, the binding result is “no binding”.
